The RNAGym collection of RNA variant scans (doi:10.1073/pnas.2313332121)

B1: TPR t1 (parent)
chain: GACCAAUCUGCCCUCAGAGCUCGAGAACAUCUUCGGAUGCAGAGGAGGCAGGCUUCGGUGGCGCGAUAGCGCCAACGUCCUCAACCUCCAAUGCAUCCCACCACAUGAUGAUGCCUGAAGAGCCUUGGUUUUUUG

Variants of: B1
Assay: polymerase ribozyme fitness, log enrichment relative to wild type (log ratio); higher = more active; in vitro selection for triplet polymerase activity
Outline: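 In triplicate, a single round of in vitro selection was run on each mutant library, PCR-built and transcribed, covering one subunit of a heterodimeric triplet polymerase ribozyme. Frozen incubation at −7 °C followed annealing with a biotinylated primer, partner subunit and triplets, and extended constructs were then gel-excised, streptavidin-captured and taken through RT-PCR. Fitness is the logarithm of genotype enrichment over wild-type enrichment, from inverse-variance-weighted replicate averages of Illumina-sequenced inputs and outputs. […] only genotypes with ≥10 input reads and ≥1 read per output were kept.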

| Variant | polymerase ribozyme fitness (log ratio) |
| --- | --- |
| A68U C124U | -5.86 |
| C70U U109A | -4.47 |
| G69U C99U | -1.7 |
| C70G C99A | -7.95 |
| G69C U81G C82U C104U U112G | -2.5 |
| G71C U96C G127A | -3.25 |
| G71U A83G A91C U96C G110A | -6.02 |
| G71C A90G | -0.94 |
| G71C A90C | -3.67 |
| C70U U87C U116A A121C | -2.16 |
| G69C A91G | -1.94 |
| G71A G117C | -3.15 |
| G69U C115A | 1 |
| C70A G120C | -0.593 |
| G69C U126A | -3.12 |
| G71A G77C C101G | -2.79 |
| G71A C101A | -2.55 |
| G71A C101U | -0.59 |
| C70G U78A C86A | -3.32 |
| C70A U81A G93A | -3.44 |
| C70A U87C C102A | -3.97 |
| C70U G110C | -4.32 |
| G71U C82A U116A | -4.01 |
| G71C A84U | -2.77 |

| Variant | polymerase ribozyme fitness (log ratio) |
| --- | --- |
| U67A A74U C94G C101A G113C | -7.83 |
| C70U C102G A121G | -5.14 |
| U67C A105U | -4.9 |
| C70A C88A C89U | -5.58 |
| G71A C104A | -2.33 |
| G71A C104U | -0.49 |
| C70A U132A | -0.853 |
| C70A C82A | -1.54 |
| A68G C114U | -5.48 |
| C70A U106G | -4.07 |
| A66U U106C | -1.81 |
| C70A C98U U130G | -2.6 |
| G71A C85U G128U U131A | -3.17 |
| G69A G135U | -3.93 |
| C70G U96A | -4.79 |
| G71A U81C C115U | -3.59 |
| C70G C86A | -4.89 |
| G69U U112A | 1.84 |
| C70U G77U U78C A95U C123G | 0.382 |
| G69C C124U | 0.177 |
| A68U A90G C101G G113A G117C | -5.75 |
| G69C C104A C123G | -1.33 |
| G69A A121U | -0.353 |
| G71U C99U | -4.69 |

| Variant | polymerase ribozyme fitness (log ratio) |
| --- | --- |
| C70U G93C | -1.12 |
| C70A C89G U125A | -4.36 |
| C70A A121C | 0.356 |
| C70A A121G | 0.93 |
| C70G C72U C123A U129G U133G | -2.93 |
| C70G A119G | -1.37 |
| C70G U112C C114A | -4.91 |
| A68G C79G A105G G110U | -8.49 |
| G69U C114G | -0.996 |
| G69C C70A A91C | -7.25 |
| G71U C89G | -1.88 |
| C70U U129C | -0.753 |
| C70A A83G C85U G113U G117U | -6.04 |
| G71U C73G A90U C114U | -7.06 |
| C70U G110U G120A U129G | -5.09 |
| A68U C115A G120C | -7.66 |
| A68G C88G A105C A111C | -4.63 |
| C70A C104U | -1.79 |
| G71C U130A | -1.3 |
| G71U A91G G93U | -2.17 |
| G71U A90U | -1.78 |
| G71U A105C | -2.99 |
| A66U U78C C123U | -0.156 |
| G69C G122U C124U | -0.632 |

| Variant | polymerase ribozyme fitness (log ratio) |
| --- | --- |
| G71A U81G G113A C123U | -6.93 |
| G71U C79U | -0.201 |
| G71U A91U U132C | -2.4 |
| G71A G120C | 0.139 |
| G71U C104A | -1.81 |
| G69A U131A | -2.38 |
| G69A U131G | -3.12 |
| G69C U133A | -1.62 |
| C70A C102U | -4.59 |
| A66U G71C | -3.02 |
| G69U C72U C114A G128A | -3.08 |
| G71A G135U | -1.5 |
| C70U G122A | -0.84 |
| G71C U87C | -1.45 |
| G71U C88U A100C U106G | -5.6 |
| G69A U81A C82U A119G G122U U125A U129C | -5.05 |
| G69C U78G C102U G110A | -6.81 |
| C70U G71U | -0.437 |
| G69A C89G C97A A105C G110U | -6.73 |
| C70U U78A A95U U112G U133A | -0.788 |
| G71C U106A G113C | -3.53 |
| C70U U81A C82G | -2.96 |
| C70U A108U | -5.38 |
| G71U C82G | -1.17 |

| Variant | polymerase ribozyme fitness (log ratio) |
| --- | --- |
| G69U C76G C85G G120U | -2.87 |
| C70G C99A G113A | -6.35 |
| G71A U81G A83U C124A | -7.19 |
| C70A C88A | -1.82 |
| G69U C72G C102U U125G | -1.81 |
| G69U U130G | 0.642 |
| G71C A103U C115A G117A | -5.57 |
| G71C G127C | -2.16 |
| G69U C88G | -0.121 |
| A68U | -7.01 |
| A68G | -2.44 |
| A68C | -6.94 |
| C70U A119G | 0.891 |
| G69U C94U U112C | 1.42 |
| A68G U112C | -0.794 |
| G69U C104A U126A | -1.49 |
| G69U C102U | -1.18 |
| G69U C102A | -1.4 |
| G69A A84U A91G | -6.33 |
| C70G U125A | -2.85 |
| C70G U125G | -4.85 |
| G71C A83U | -1.19 |
| U67C G110U | -3.86 |
| U67G C82A | -6.14 |

| Variant | polymerase ribozyme fitness (log ratio) |
| --- | --- |
| G69U G120U | 1.02 |
| C70U C98U U129G | -2.67 |
| G69U C79U C80U U116C | -0.478 |
| G71A C94G A108G C123A G135U | -4.8 |
| G69A C73A | -2.75 |
| G71U C101G U106G | -3.61 |
| C70A A83G C85A C88U | -2.53 |
| G69A A84U | -3.06 |
| C70G G120C | -1.8 |
| C70A C73U A111C | -2.13 |
| G69C C94U | -1.35 |
| G69U C123U | 1.98 |
| G69A U96C | -3.08 |
| G69C C123G | 0.685 |
| G69A C98U | -3.52 |
| A68C C124A | -5.4 |
| A66U U125G | -1.48 |
| G69U C89U | -0.148 |
| C70A G113C | -3.23 |
| C70U C97A | -4.6 |
| G71A C82G G117U | -3.41 |
| G71A U92C | -2.39 |
| G71A U92G | -3.98 |
| G69A C82U G120A G122U | -2.26 |

| Variant | polymerase ribozyme fitness (log ratio) |
| --- | --- |
| G71A C79G | -3.16 |
| U67C C88A | -5.76 |
| G69U A83U G127A | -1.18 |
| G71A U87G | -0.439 |
| G69A U130A U133G | -2.25 |
| G69U C70U C80U G113C A119G | -3.06 |
| C70A G128A | -3.64 |
| C70G G127C | -3.14 |
| G71A A100U | -1.77 |
| G69C C101A | -2.4 |
| G71A U96G C123A | -0.833 |
| G71C C79A | -1.86 |
| C70A A111G | -1.42 |
| C70A A111C | -2.46 |
| G69C U78A | -2.44 |
| C70U A74C C101U | -0.934 |
| G69A C115G | -3.93 |
| G69A C104U G120A U133A | -0.971 |
| G71C U112A U133A | 0.204 |
| G69C G120C | -0.251 |
| C70U C82A C85U | -1.4 |
| C70G A74G | -4.02 |
| G69C A83U U129A | -1.71 |
